# From publication PMC6719061
# How the values were obtained:
# [1] = molecular target: Lst-ABD, recombinant fusion protein with lysostaphin at the N-terminus and the albumin-binding domain from streptococcal protein G at the C-terminus (not stated | Streptococcus sp.); assay: photonic crystal-based biosensor (EVA 2.0); Lst-ABD immobilised covalently by amine coupling (EDC/NHS) on a carboxylate-derivatized photonic crystal chip; albumin in PBST (PBS + 0.02% Tween-20, pH 7.4) pumped through the flow cell, ~5 min association, ~5 min dissociation; RSA 250, 42, 7 and 1.2 µg/mL, BSA 1 mg/mL; heterogeneous binding model with two independent sites, koff1 = koff2 fixed
# [2] = molecular target: Lst-ABD, recombinant fusion protein with lysostaphin at the N-terminus and the albumin-binding domain from streptococcal protein G at the C-terminus (not stated | Streptococcus sp.)
substance,measurement,setting,value
rat serum albumin (from UniProt P02770 25-608) (natural protein),KD1 (high-affinity site),[1],2.3 nM
same,KD2 (low-affinity site),[1],20 nM
same,koff,[1],5.9e-05 s⁻¹
same,kon1 (high-affinity site),[1],26000 M⁻¹ s⁻¹
same,kon2 (low-affinity site),[1],3000 M⁻¹ s⁻¹
same,"rate of clearing of S. aureus ATCC 29213 cell suspension (turbidimetry, OD 550 nm) by Lst-ABD in the presence of 100 µg/mL RSA, relative to lysostaphin",[2],25%
